One block for each binder: values may come before it.
Assays:
[1] = target: T1, Recombinant human CD137 Fc fusion protein (Sino Biological) (human, UniProt Q07011 24-186); test: ForteBio Octet BLI; antigen-Fc on Protein A sensor, 100 nM construct
T1 construct: not shown: Fc part of the bought fusion protein
Procedure: (§1) Antigen binding of MIAC constructs were analyzed using ForteBio Octet. […] All antigens were reconstituted in PBS at the final concentration of 0.25 ug/ul. […] Association proceeded by dipping sensors in 100 nM MIAC constructs for 5 minutes and disassociation occurred in blank kinetics buffer for 5 minutes. For CD3 epsilon binding, antigen was immobilized on Ni-NTA sensors; association was performed in 50 nM MIAC constructs. Binding data were analyzed using ForteBio Data Analysis 9.0 software.

[2] = target: T2, Recombinant human PD-1 Fc fusion protein (Sino Biological) (human, UniProt Q15116 25-167); test: ForteBio Octet BLI; antigen-Fc on Protein A sensor, construct in solution
T2 construct: not shown: Fc part of the bought fusion protein

[3] = target: T3, Recombinant human Her2 Fc fusion protein (Sino Biological) (human, UniProt P04626 23-652); test: as above
T3 construct: not shown: Fc part of the bought fusion protein

[4] = target: T1, Recombinant human CD137 Fc fusion …; test: as above
[5] = target: T2, Recombinant human PD-1 Fc fusion …; test: ForteBio Octet BLI; antigen-Fc on Protein A sensor, 100 nM construct
Procedure: as §1

T2 sequence (Q15116 25-167 limits assumed): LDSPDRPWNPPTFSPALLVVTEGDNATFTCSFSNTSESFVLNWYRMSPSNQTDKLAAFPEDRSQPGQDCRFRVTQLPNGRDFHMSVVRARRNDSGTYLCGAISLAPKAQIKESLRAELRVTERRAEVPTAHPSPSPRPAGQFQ

B3: PID-7 (bispecific Her2/PD-1 MIAC; Pembrolizumab IgG1 with Trastuzumab scFv at the heavy chain C-termini) (bispecific antibody)
heavy: not shown
light: EIVLTQSPATLSLSPGERATLSCRASKGVSTSGYSYLHWYQQKPGQAPRLLIYLASYLESGVPARFSGSGSGTDFTLTISSLEPEDFAVYYCQHSRDLPLTFGGGTKVEIKRTVAAPSVFIFPPSDEQLKSGTASVVCLLNNFYPREAKVQWKVDNALQSGNSQESVTEQDSKDSTYSLSSTLTLSKADYEKHKVYACEVTHQGLSSPVTKSFNRGEC
notes: also called α-Her2/α-PD-1
Kd [5]: 0.12 nM | binding result [4]: no binding (tested: 100 nM)

B4: PID-90 (monospecific anti-CD137; Urelumab Fab domain, human IgG1 constant domain) (antibody, V domains shown)
VH: QVQLQQWGAGLLKPSETLSLTCAVYGGSFSGYYWSWIRQSPEKGLEWIGEINHGGYVTYNPSLESRVTISVDTSKNQFSLKLSSVTAADTAVYYCARDYGPGNYDWYFDLWGRGTLVTVSS
VL: EIVLTQSPATLSLSPGERATLSCRASQSVSSYLAWYQQKPGQAPRLLIYDASNRATGIPARFSGSGSGTDFTLTISSLEPEDFAVYYCQQRSNWPPALTFGGGTKVEIKR
notes: also called PID90 (CD137)
Kd [1]: 0.7 nM | binding result [3]: no binding (tested: 100 nM) | binding result [2]: no binding (tested: 100 nM)

Further lines, results first:

Kd [1]: 0.23 nM | binding result [2]: no binding (tested: 100 nM)
B1: PID-92 (bispecific Her2/CD137 MIAC; Urelumab IgG1 with Trastuzumab scFv at the heavy chain C-termini) (bispecific antibody)
heavy: not shown
light: not shown
notes: also called α-Her2/α-CD137 MIAC; PID92 [Her2/CD137]

binding result [3]: no binding (tested: 100 nM) | binding result [4]: no binding (tested: 100 nM)
B2: PID-2 (monospecific anti-PD-1; Pembrolizumab Fab domain, human IgG1 constant domain) (antibody, V domains shown)
VH: QVQLVQSGVEVKKPGASVKVSCKASGYTFTNYYMYWVRQAPGQGLEWMGGINPSNGGTNFNEKFKNRVTLTTDSSTTTAYMELKSLQFDDTAVYYCARRDYRFDMGFDYWGQGTTVTVSS
VL: EIVLTQSPATLSLSPGERATLSCRASKGVSTSGYSYLHWYQQKPGQAPRLLIYLASYLESGVPARFSGSGSGTDFTLTISSLEPEDFAVYYCQHSRDLPLTFGGGTKVEIKR
notes: also called PID2 (PD-1)

Reference: US20180318417A1 (COMPASS THERAPEUTICS, published 2018)
